Assay results reported in patent publication US20220119517A1 (NANJING SANHOME PHARMACEUTICAL, published 2022).

Tests used:
[1] = target: T1, human Claudin18.1 (CLDN18.1), full length, on cells (human, UniProt P56856 1-261); test: FACS on CHO-K1-CLDN18.1 cells
T1 construct: HEK293-CLDN18.1 cells carry a fusion with green fluorescent protein (ZsGreen); CHO-K1-CLDN18.1 cells carry pcDNA3.1-CLDN18.1; The cell line is named under assay; also called CLDN18.1-FL; HEK293-CLDN18.1 cells
Excerpt: (§1) Human gastric cancer cells NUGC4 and stably transfected cells CHO-K1-CLDN18.1 (prepared in Example 5) were used respectively, to verify the specificity and affinity of the anti-CLDN18.2 antibodies above at the cellular level by FAGS technology. After antibody affinity maturation and screening in vitro, each antibody can bind to the CLDN18.2 target on NUGC4 cells, but not to CHO-K1-CLDN18.1 cells, as compared with the original 3CHI antibody.

[2] = target: T2, human Claudin18.2 (CLDN18.2), full length, on cells (human); test: cell-based or functional assay
[3] = target: T3, antigen protein Claudin18.2-His (human, UniProt P56856-2 1-261, limits assumed); test: BLI (Fortebio Octet RED96), antibody on AHC sensor, Claudin18.2-His in solution, 37 °C
T3 construct: also called CLDN18.2 protein
Protocol: Next, antibodies were immobilized by the AHC sensor, and then combined with different concentrations of antigens, and determination of the affinity was performed according to the manual of Octet RED96.

[4] = target: T2, human Claudin18.2 (CLDN18.2), full …; test: FACS on NUGC4 cells
Excerpt: as §1

[5] = target: T1, human Claudin18.1 (CLDN18.1), full …; test: cellular ELISA
[6] = target: T2, human Claudin18.2 (CLDN18.2), full …; test: cellular ELISA

Binder | MFI (CLDN18.1) [1] [MFI] | MFI (CLDN18.2) [4] [MFI] | binding result [5] | binding result [6] | also measured
305CHI (antibody, human IgG1, V domains shown, chimeric with the constant region of human IgG1) VH: EVKLVESGGGLVQPGGSLKLSCAASGFTFSDYGMAWVRQAPRKGPEWVAFISNLAYSIYYADTVTGRFTISRENAKNTLYLEMSSLRSEDTAMYYCARLGYGNSFAYWGQGTLVTVSA VL: DIVMTQSPSSLTVTAGEKVTMSCKSSQSLLNSGNQKNYLTWYQQKPGQPPKLLIYWASTRESGVPDRFTGSGSGTDFTLTISSVQAEDLAVYYCQNELFYPLTFGAGTKLELK | 68 | 38900 | no binding | – | in-vitro ADCC activity, Jurkat-CD16A/NF luciferase reporter, EC50 [2]: 0.28 nM; in-vitro ADCC activity, Jurkat-CD16A/NF luciferase reporter, Top [2]: 216000; Kd [3]: 0.865 nM; koff [3]: 4.44e-05 s⁻¹; kon [3]: 51300 M⁻¹ s⁻¹
307CHI (antibody, V domains shown, chimeric with the constant region of human IgG1) VH: EVKLVESGGGLVQPGGSLKLSCAASGFGFSDYGMAWVRQAPRKGPEWVAFISNSAYSIYYADTVTGRFTISRENAKNTLYLEMSSLRSEDTAMYYCARLGYGNSFAYWGQGTLVTVSA VL: DIVMTQSPSSLTVTAGEKVTMSCKSSQSLLNSGNQKNYLTWYQQKPGQPPKLLIYWASTRESGVPDRFTGSGSGTDFTLTISSVQAEDLAVYYCQNNYYYPLTFGAGTKLELK | – | – | no binding | binds | –
313CHI (antibody, V domains shown, chimeric with the constant region of human IgG1) VH: EVKLVESGGGLVQPGGSLKLSCAASGFTFSDYGMAWVRQAPRKGPEWVAFISNLAYSIYYADTVTGRFTISRENAKNTLYLEMSSLRSEDTAMYYCARLGRGNSFAYWGQGTLVTVSA VL: DIVMTQSPSSLTVTAGEKVTMSCKSSQSLLNSGNQKNYLTWYQQKPGQPPKLLIYWASTRESGVPDRFTGSGSGTDFTLTISSVQAEDLAVYYCQNNYYYPLTFGAGTKLELK | – | – | no binding | binds | –
302CHI (antibody, V domains shown, chimeric with the constant region of human IgG1) VH: EVKLVESGGGLVQPGGSLKLSCAASGFTFSDYGMAWVRQAPRKGPEWVAFISNLAYSIYYADTVTGRFTISRENAKNTLYLEMSSLRSEDTAMYYCARLGYGNSFAYWGQGTLVTVSA VL: DIVMTQSPSSLTVTAGEKVTMSCKSSQSLLNSGNQKNYLTWYQQKPGQPPKLLIYWASTRESGVPDRFTGSGSGTDFTLTISSVQAEDLAVYYCQNDYSLPFTFGAGTKLELK | – | – | no binding | binds | –
312CHI (antibody, human IgG1, V domains shown, chimeric with the constant region of human IgG1) VH: EVKLVESGGGLVQPGGSLKLSCAASGFTFSRYGMAWVRQAPGKGPEWVAFISNSAYSIYYADTVTGRFTISRENAKNTLYLEMSSLRSEDTAMYYCARLGYGNSFAYWGQGTLVTVSA VL: DIVMTQSPSSLTVTAGEKVTMSCKSSQSLLNSGNQKNYLTWYQQKPGQPPKLLIYWASTRESGVPDRFTGSGSGTDFTLTISSVQAEDLAVYYCQNELFYPLTFGAGTKLELK | – | – | no binding | binds | –
315CHI (antibody, human IgG1, V domains shown, chimeric with the constant region of human IgG1) VH: EVKLVESGGGLVQPGGSLKLSCAASGFTFSDYGMAWVRQAPRKGPEWVAFISNLAYSIYYADTVTGRFTISRENAKNTLYLEMSSLRSEDTAMYYCARLGRGNSFAYWGQGTLVTVSA VL: DIVMTQSPSSLTVTAGEKVTMSCKSSQSLLNSGNQKNYLTWYQQKPGQPPKLLIYWASTRESGVPDRFTGSGSGTDFTLTISSVQAEDLAVYYCQNELFYPLTFGAGTKLELK | 65 | 42300 | no binding | – | –
306CHI (antibody, V domains shown, chimeric with the constant region of human IgG1) VH: EVKLVESGGGLVQPGGSLKLSCAASGFTFSDYGMAWVRQAPRKGPEWVAFISNLAYSIYYADTVTGRFTISRENAKNTLYLEMSSLRSEDTAMYYCARLGRGNSFAYWGQGTLVTVSA VL: DIVMTQSPSSLTVTAGEKVTMSCKSSQSLLNSGNQKNYLTWYQQKPGQPPKLLIYWASTRESGVPDRFTGSGSGTDFTLTISSVQAEDLAVYYCQNDYSFPLTFGAGTKLELK | – | – | no binding | binds | –
328CHI (antibody, human IgG1, V domains shown, chimeric with the constant region of human IgG1) VH: EVKLVESGGGLVQPGGSLKLSCAASGFGFSDYGMAWVRQAPRKGPEWVAFISNSAYSIYYADTVTGRFTISRENAKNTLYLEMSSLRSEDTAMYYCARLGRGNSFAYWGQGTLVTVSA VL: DIVMTQSPSSLTVTAGEKVTMSCKSSQSLLNSGNQKNYLTWYQQKPGQPPKLLIYWGSTRESGVPDRFTGSGSGTDFTLTISSVQAEDLAVYYCQNNYYYPLTFGAGTKLELK | – | – | no binding | binds | –
304CHI (antibody, V domains shown, chimeric with the constant region of human IgG1) VH: EVKLVESGGGLVQPGGSLKLSCAASGFGFSDYGMAWVRQAPRKGPEWVAFISNSAYSIYYADTVTGRFTISRENAKNTLYLEMSSLRSEDTAMYYCARLGYGNSFAYWGQGTLVTVSA VL: DIVMTQSPSSLTVTAGEKVTMSCKSSQSLLNSGNQKNYLTWYQQKPGQPPKLLIYWASTREPGVPDRFTGSGSGTDFTLTISSVQAEDLAVYYCQNDYSYPLTFGAGTKLELK | – | – | no binding | binds | –
321CHI (antibody, human IgG1, V domains shown, chimeric with the constant region of human IgG1) VH: EVKLVESGGGLVQPGGSLKLSCAASGFGFSDYGMAWVRQAPRKGPEWVAFISNSAYSIYYADTVTGRFTISRENAKNTLYLEMSSLRSEDTAMYYCARLGRGNSFAYWGQGTLVTVSA VL: DIVMTQSPSSLTVTAGEKVTMSCKSSQSLLNSGNQKNYLTWYQQKPGQPPKLLIYWASTRESGVPDRFTGSGSGTDFTLTISSVQAEDLAVYYCQNELFYPLTFGAGTKLELK | 299 | 46300 | no binding | – | –
303CHI (antibody, V domains shown, chimeric with the constant region of human IgG1) VH: EVKLVESGGGLVQPGGSLKLSCAASGFTFSRYGMAWVRQAPGKGPEWVAFISNSAYSIYYADTVTGRFTISRENAKNTLYLEMSSLRSEDTAMYYCARLGYGNSFAYWGQGTLVTVSA VL: DIVMTQSPSSLTVTAGEKVTMSCKSSQSLLNSGNQKNYLTWYQQKPGQPPKLLIYWGSTRESGVPDRFTGSGSGTDFTLTISSVQAEDLAVYYCQNDYSYPLTFGAGTKLELK | 85 | 38200 | no binding | – | –
309CHI (antibody, human IgG1, V domains shown, chimeric with the constant region of human IgG1) VH: EVKLVESGGGLVQPGGSLKLSCAASGFGFSDYGMAWVRQAPRKGPEWVAFISNSAYSIYYADTVTGRFTISRENAKNTLYLEMSSLRSEDTAMYYCARLGYGNSFAYWGQGTLVTVSA VL: DIVMTQSPSSLTVTAGEKVTMSCKSSQSLLNSGNQKNYLTWYQQKPGQPPKLLIYWASTRESGVPDRFTGSGSGTDFTLTISSVQAEDLAVYYCQNELFYPLTFGAGTKLELK | 78 | 42500 | no binding | – | –
301CHI (antibody, V domains shown, chimeric with the constant region of human IgG1) VH: EVKLVESGGGLVQPGGSLKLSCAASGFTFSDYGMAWVRQAPRKGPEWVAFISNLAYSIYYADTVTGRFTISRENAKNTLYLEMSSLRSEDTAMYYCARLGYGNSFAYWGQGTLVTVSA VL: DIVMTQSPSSLTVTAGEKVTMSCKSSQSLLNSGNQKNYLTWYQQKPGQPPKLLIYWASTRESGVPDRFTGSGSGTDFTLTISSVQAEDLAVYYCQNNYYYPLTFGAGTKLELK | 114 | 44400 | no binding | – | –
322CHI (antibody, human IgG1, V domains shown, chimeric with the constant region of human IgG1) VH: EVKLVESGGGLVQPGGSLKLSCAASGFTFSDYGMAWVRQAPRKGPEWVAFISNLAYSIYYADTVTGRFTISRENAKNTLYLEMSSLRSEDTAMYYCARLGYGNSFAYWGQGTLVTVSA VL: DIVMTQSPSSLTVTAGEKVTMSCKSSQSLLNSGNQKNYLTWYQQKPGQPPKLLIYWGSTRESGVPDRFTGSGSGTDFTLTISSVQAEDLAVYYCQNNYYYPLTFGAGTKLELK | 57 | 44800 | no binding | – | –
324CHI (antibody, human IgG1, V domains shown, chimeric with the constant region of human IgG1) VH: EVKLVESGGGLVQPGGSLKLSCAASGFTFSDYGMAWVRQAPRKGPEWVAFISNLAYSIYYADTVTGRFTISRENAKNTLYLEMSSLRSEDTAMYYCARLGYGNSFAYWGQGTLVTVSA VL: DIVMTQSPSSLTVTAGEKVTMSCKSSQSLLNSGNQKNYLTWYQQKPGQPPKLLIYWGSTRESGVPDRFTGSGSGTDFTLTISSVQAEDLAVYYCQNELFYPLTFGAGTKLELK | 248 | 36000 | no binding | – | –
308CHI (antibody, V domains shown, chimeric with the constant region of human IgG1) VH: EVKLVESGGGLVQPGGSLKLSCAASGFGFSDYGMAWVRQAPRKGPEWVAFISNSAYSIYYADTVTGRFTISRENAKNTLYLEMSSLRSEDTAMYYCARLGYGNSFAYWGQGTLVTVSA VL: DIVMTQSPSSLTVTAGEKVTMSCKSSQSLLNSGNQKNYLTWYQQKPGQPPKLLIYWASTRESGVPDRFTGSGSGTDFTLTISSVQAEDLAVYYCQNDYSLPFTFGAGTKLELK | – | – | no binding | binds | –
319CHI (antibody, V domains shown, chimeric with the constant region of human IgG1) VH: EVKLVESGGGLVQPGGSLKLSCAASGFGFSDYGMAWVRQAPRKGPEWVAFISNSAYSIYYADTVTGRFTISRENAKNTLYLEMSSLRSEDTAMYYCARLGRGNSFAYWGQGTLVTVSA VL: DIVMTQSPSSLTVTAGEKVTMSCKSSQSLLNSGNQKNYLTWYQQKPGQPPKLLIYWASTRESGVPDRFTGSGSGTDFTLTISSVQAEDLAVYYCQNNYYYPLTFGAGTKLELK | – | – | no binding | binds | –
